US6875737

Target: T cell receptor of the murine 2B4 T cell hybridoma
Assay: cell-based or functional assay

| Substance | IL-2 production in 2B4 cells at 0.4 µM KbP-S-MCC, against the maximum response obtained with the MCC peptide alone [fold] | IL-2 production in 2B4 cells: concentration needed for the maximum response, against 0.4 µM KbP-S-MCC (fold higher concentration) |
| --- | --- | --- |
| KbP-S-MCC (Lys-boroPro coupled through a spacer linker to the N terminus of moth cytochrome C peptide 94-103) (from UniProt P00039 94-103) | > 2 |  |
| Moth cytochrome C peptide MCC 94-103 (from UniProt P00039 94-103) |  | 10 |
